Test results: patent US12564623B2, “Methods and compositions for treating cancer” (The University of Chicago, priority 2017, dated 2026)

T1: ELANE (Homo sapiens, UniProt P08246)
T1 construct: incubated the neutrophil conditioned media with magnetic beads coupled to an anti-ELANE antibody; endogenous in cells; host or cells: human peripheral blood neutrophils from healthy donors (conditioned media)
T1 sequence (P08246 30-267): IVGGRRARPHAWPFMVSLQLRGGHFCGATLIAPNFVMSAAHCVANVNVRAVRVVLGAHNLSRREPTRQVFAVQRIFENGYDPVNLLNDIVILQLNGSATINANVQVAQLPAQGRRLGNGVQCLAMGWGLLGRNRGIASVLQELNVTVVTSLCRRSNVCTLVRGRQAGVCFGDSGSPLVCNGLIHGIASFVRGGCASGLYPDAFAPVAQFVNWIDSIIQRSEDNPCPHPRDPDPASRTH

T2: CD95 (Homo sapiens, UniProt P25445)
T2 sequence (P25445 26-335): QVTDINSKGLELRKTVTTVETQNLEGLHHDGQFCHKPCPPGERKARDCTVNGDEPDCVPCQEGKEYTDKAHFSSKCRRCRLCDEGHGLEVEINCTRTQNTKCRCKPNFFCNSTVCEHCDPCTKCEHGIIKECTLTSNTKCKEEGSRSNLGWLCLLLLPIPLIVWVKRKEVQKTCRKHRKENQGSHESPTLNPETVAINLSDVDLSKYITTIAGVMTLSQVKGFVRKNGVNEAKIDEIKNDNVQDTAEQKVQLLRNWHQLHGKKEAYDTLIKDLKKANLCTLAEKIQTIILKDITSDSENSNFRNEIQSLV

B1: murine neutrophil elastase (protein, listed as Mus musculus)
chain: MALGRLSSRTLAAMLLALFLGGPALASEIVGGRPARPHAWPFMASLQRRGGHFCGATLIARNFVMSAAHCVNGLNFRSVQVVLGAHDLRRQERTRQTFSVQRIFENGFDPSQLLNDIVIIQLNGSATINANVQVAQLPAQGQGVGDRTPCLAMGWGRLGTNRPSPSVLQELNVTVVTNMCRRRVNVCTLVPRRQAGICFGDSGGPLVCNNLVQGIDSFIRGGCGSGLYPDAFAPVAEFADWINSIIRSHNDHLLTHPKDREGRTN
B2: ANXA6: purified human ANXA6 (R&D Systems) (protein, UniProt P08133 2-673, looked up)
Annexin A6: AKPAQGAKYRGSIHDFPGFDPNQDAEALYTAMKGFGSDKEAILDIITSRSNRQRQEVCQSYKSLYGKDLIADLKYELTGKFERLIVGLMRPPAYCDAKEIKDAISGIGTDEKCLIEILASRTNEQMHQLVAAYKDAYERDLEADIIGDTSGHFQKMLVVLLQGTREEDDVVSEDLVQQDVQDLYEAGELKWGTDEAQFIYILGNRSKQHLRLVFDEYLKTTGKPIEASIRGELSGDFEKLMLAVVKCIRSTPEYFAERLFKAMKGLGTRDNTLIRIMVSRSELDMLDIREIFRTKYEKSLYSMIKNDTSGEYKKTLLKLSGGDDDAAGQFFPEAAQVAYQMWELSAVARVELKGTVRPANDFNPDADAKALRKAMKGLGTDEDTIIDIITHRSNVQRQQIRQTFKSHFGRDLMTDLKSEISGDLARLILGLMMPPAHYDAKQLKKAMEGAGTDEKALIEILATRTNAEIRAINEAYKEDYHKSLEDALSSDTSGHFRRILISLATGHREEGGENLDQAREDAQVAAEILEIADTPSGDKTSLETRFMTILCTRSYPHLRRVFQEFIKMTNYDVEHTIKKEMSGDVRDAFVAIVQSVKNKPLFFADKLYKSMKGAGTDEKTLTRIMVSRSEIDLLNIRREFIEKYDKSLHQAIEGDTSGDFLKALLALCGGED
B3: CASP3: purified human CASP3 (Abcam) (protein)
chain: MENTENSVDSKSIKNLEPKIIHGSESMDSGISLDNSYKMDYPEMGLCIIINNKNFHKSTGMTSRSGTDVDAANLRETFRNLKYEVRNKNDLTREEIVELMRDVSKEDHSKRSSFVCVLLSHGEEGIIFGTNGPVDLKKITNFFRGDRCRSLTGKPKLFIIQACRGTELDCGIETDSGVDDDMACHKIPVEADFLYAYSTAPGYYSWRNSKDGSWFIQSLCAMLKQYADKLEFMHILTRVNRKVATEFESFSFDATFHAKKQIPCIVSMLTKELYFYH
B4: proteinase 3 (protein, listed as Homo sapiens)
chain: MAHRPPSPALASVLLALLLSGAARAAEIVGGHEAQPHSRPYMASLQMRGNPGSHFCGGTLIHPSFVLTAAHCLRDIPQRLVNVVLGAHNVRTQEPTQQHFSVAQVFLNNYDAENKLNDVLLIQLSSPANLSASVATVQLPQQDQPVPHGTQCLAMGWGRVGAHDPPAQVLQELNVTVVTFFCRPHNICTFVPRRKAGICFGDSGGPLICDGIIQGIDSFVIWGCATRLFPDFFTRVALYVDWIRSTLRRVEAKGRP

Columns and labels:
MDA-MB-231 cells = experiment: Cancer cell killing, Calcein AM staining; format: cell-based, human; conditions: for cancer cell killing in combination with neutrophil conditioned media: Neu-CM 4 μg/mL, DOX 0.3 μM or PTX 3 nM, 4h; for cancer cell killing activity of purified protein: increasing doses, 5h
Experimental: Approach to identify the factor(s) mediating selective killing. A quantitative cancer cell killing assay was developed to track the bioactive factor(s). MDA-MB-231 cells were treated with various doses of PMN media and cell viability was assessed by Calcein AM live cells fluorescence staining. […] (FIG. 3B) PMN media was passed through a 0.22 μm filter, and protein concentration and killing activity on MDA-MB-231 cancer cells was measured in both pre- and post-filter solutions. […] ELANE and ECP levels in PMN media pre- and post-filtration were quantified by mass spectrometry (spectral counts).
To determine if ELANE and/or ECP were responsible, the inventors (1) immuno-depleted ELANE or ECP from PMN media; (2) treated cancer or normal cells with purified native ELANE or ECP from commercial sources. (FIG. 6A) ELANE or ECP were depleted from PMN media by immunoprecipitation; depletion was confirmed by western blotting. PMN media pre-depletion=Orig. and post-depletion=FT. Non-specific IgG was used as a control. (FIG. 6B) MDA-MB-231 cells or human monocyte-derived macrophages (HMDMs) were treated with purified native ELANE or ECP at various doses for 24h, and killing was assessed by Calcein AM staining. (FIG. 6C) MDA-MB-231 cells and HMDMs were treated with levels of ELANE (0.25 μg/mL) or ECP (0.05 μg/mL) that were present in the PMN media, alone or in combination for 24 hrs, and killing was examined by Calcein AM staining.
High doses of ECP or ELANE can kill cancer cells. The inventors sought to determine whether adding purified human ECP (Lee Biosolutions), human ELANE (Abcam), human DEFA1 (Abcam), human ANXA6 (R&D Systems) or human CASP3 (Abcam) individually could kill cancer cells without killing non-cancer cells. Increasing doses of each protein were added to MDA-MB-231 cells for 5h or human monocyte-derived macrophages (HMDMs) for 24 h and cell viability was determined by Calcein-AM.
ELANE and ECP synergize to selectively kill cancer cells. MDA-MB-231 and human monocyte-derived macrophages (HMDMs) were treated with levels of ELANE (0.25 μg/mL) or ECP (0.05 μg/mL) that were present in the PMN media, alone or in combination for 24 hrs. killing was examined by Calcein AM staining.
Combining chemotherapeutics and neutrophil conditioned media enhances the killing of human triple negative breast cancer cells. MDA-MB-231 cells were treated with neutrophil conditioned media (Neu-CM; 4 μg/mL), doxorubicin (DOX; 0.3 μM), or paclitaxel (PTX; 3 nM) for 4h, individually or in combination, and cell viability was assessed by Calcein-AM.
(§1) Other serine proteases cleave the C-terminal domain of CD95, and the ability to cleave the C-terminal domain is associated with cancer cell killing. (FIG. 12A) Full length recombinanat CD95 protein was incubated with various serine proteases (human ELANE (80 nM), PR3 (80 nM), CSTG (80 nM), PPE (80 nM), mouse ELANE (80 nM), rat ELANE (500 nM), GZMB (80 nM), or Trypsin (250 nM)), or other types of proteases (CTSC (80 nM); or MMP7 (80 nM), MMP9 (80 nM), CTSD (80 nM) not shown) at 37° C. for 2 hours. Degradation was assessed by SDS-PAGE followed by coomassie blue staining. (FIG. 12B) MDA-MB-231 cancer cells were incubated with various proteases for 24 hrs. Cell viability was assessed by Calcein AM staining.
(FIG. 13A) MDA-MB-231 cancer cells were treated with various doses of purified native ELANE or purified native porcine pancreatic elastase (PPE) for 6 h, and killing was assessed by Calcein AM staining. (FIG. 13B). Purified native ELANE or purified native PPE was incubated with different concentrations of alpha-1-anti-trypsin (A1AT) for 15 mins. Catalytic activity was measured using a chromogenic substrate assay. Cancer cell killing capability was determined by treating MDA-MB-231 cancer cells with ELANE or PPE in the presence or absence of A1AT for 6h, followed by Calcein AM staining. (FIG. 13C) Catalytic activity was measured using a chromogenic substrate assay. […]

ELANE = molecular target: T1, ELANE; experiment: Anti-ELANE magnetic bead pull-down from neutrophil conditioned media, western blotting; format: binding; conditions: anti-ELANE antibody beads
Description: Identification of ECP, ELANE, ANXA6, DEFA1, and CASP3 as candidate cancer cell killing proteins in the neutrophil conditioned media. Neutrophil conditioned media was obtained from 2 different donors (Donor 1 and Donor 2). […] To determine the identity of the proteins depleted by the 0.2 μm sterile filter, the inventors performed quantitative proteomics analysis on the conditioned media from each donor pre- and post-filter. Proteomics analysis identified 2000 proteins, 4 of which (ECP, ELANE, ANXA6, and DEFA1) were depleted in samples from both donors (G-test, p<0.05). The inventors explored the possibility that these proteins might interact with or complement one another. This hypothesis was tested using two approaches. First, the inventors incubated the neutrophil conditioned media with magnetic beads coupled to an anti-ELANE antibody and analyzed the supernatant (sup), wash, and eluent (elute) by western blotting.

CD95 = molecular target: T2, CD95; experiment: Recombinant CD95 degradation, SDS-PAGE and coomassie blue; format: biochemical; design: Recombinant proteins (1 μg) corresponding to full length CD95 (FL-CD95); conditions: purified CD95
Experimental: ELANE lowers CD95 levels in cancer cells and reduced CD95 levels are associated with apoptosis. (FIG. 8A) Recombinant proteins (1 μg) corresponding to full length CD95 (FL-CD95), N-terminal domain of CD95 (amino acids 1-173; N-CD95), or C-terminal domain of CD95 (amino acids 157-320; C-CD95) were inbuated with ELANE (0.05 μg) or vehicle (Veh) for 2 hrs at 37° C. Degradation was assessed by SDS-PAGE followed by coomassie blue staining. […] (FIG. 8C) Cancer cells were treated with ELANE (50 nM) for 1 hr, fixed in 10% formalin, and stained with N- or C-terminal specific anti-CD95 antibodies (green). Hoechst 33342 solution was used for nuclear staining (blue). Images were taken under 40×.
ELANE selectively cleaves the C-terminal domain of CD95. The CD95 pathway is essential for the survival of a wide range of cancer cells, but largely dispensable for normal cell survival (Adachi et al., Nat. Genet., 1995; Karray et al., J. Immunol., 2004). CD95 function can be modulated by proteolysis (Strand et al., Oncogene, 2004). To test CD95 involvement in ELANE mediated cell killing ELANE (0.05 μg) was incubated with 1 μg recombinant human C-terminal (aa. 157-320) or N-terminal (aa. 1-173) CD95 for 2 hrs at 37° C. Degradation was assessed by SDS-PAGE followed by staining with coomassie blue. C-terminal domain cleavage. N-terminal domain cleavage. Cancer cells were treated with ELANE (50 nM) for 1 hr, fixed in 10% formalin, and stained with N- or C-terminal specific anti-CD95 antibodies. Hoechst 33342 solution was used for nuclear staining. Images were taken under 40×. […] Mel888 cancer cells were treated with ELANE (50 nM) for various times, and CD95 degradation was assessed by western blot analysis with a C-terminal specific anti-CD95 antibody.
as §1

Molecule | cancer cell killing activity of purified protein (MDA-MB-231 cells) | cancer cell killing by proteases (MDA-MB-231 cells) | cleavage of purified CD95 (CD95) | also measured
COc1cccc2c1C(=O)c1c(O)c3c(c(O)c1C2=O)C[C@@](O)(C(=O)CO)C[C@@H]3O[C@H]1C[C@H](N)[C@H](O)[C@H](C)O1 [doxorubicin, reference compound] |  |  |  | cancer cell killing in combination with neutrophil conditioned media (MDA-MB-231 cells): enhanced cancer cell killing
CC(=O)O[C@H]1C(=O)[C@@]2(C)[C@H]([C@H](OC(=O)c3ccccc3)[C@]3(O)C[C@H](OC(=O)[C@H](O)[C@@H](NC(=O)c4ccccc4)c4ccccc4)C(C)=C1C3(C)C)[C@]1(OC(C)=O)CO[C@@H]1C[C@@H]2O [paclitaxel, reference compound] |  |  |  | cancer cell killing in combination with neutrophil conditioned media (MDA-MB-231 cells): enhanced cancer cell killing
DEFA1: purified human DEFA1 (Abcam) | low amount of activity |  |  | binding to ELANE (ELANE): ELANE-binding proteins
cathepsin G [CTSG] |  | killed cancer cells | cleaved purified CD95 with an identical degradation pattern to ELANE | 
B1 |  | killed cancer cells | cleaved purified CD95 with an identical degradation pattern to ELANE | 
B2 | could not kill cancer cells |  |  | 
B3 | could not kill cancer cells |  |  | binding to ELANE (ELANE): ELANE-binding proteins
B4 |  | killed cancer cells | cleaved purified CD95 with an identical degradation pattern to ELANE | 
